# Reference: the RNAGym collection of RNA variant scans (doi:10.7554/elife.80360)
# B1: HDV Ribozyme (parent)
# chain: GGCCGGCAUGGUCCCAGCCUCCUCGCUGGCGCCGGCUGGGCAACAUUCCGAGGGGACCGUCCCCUCGGUAAUGGCGAAUGGGACCCA
# Variants of: B1
# Assay: self-cleavage, relative activity (ratio to wild type); higher = more cleavage; co-transcriptional
row,Variant,self-cleavage
1,GGCCGGCAUGGUCCCAGUCUCCUCGCUGGCGCCGGCUGGGCAACACUCCGAGGGGACCGUCCCCUCGGUAAUGGCGAAUGGGACCCA [C18U U46C],0.374
2,GGCCGGCAUGGUCCCAGCAUCCUCGCUGGCGGCGGCUGGGCAACAUUCCGAGGGGACCGUCCCCUCGGUAAUGGCGAAUGGGACCCA [C19A C32G],0.116
3,GGCCGGCAUGGUCCCAGCAUCCUCGCUGGCGUCGGCUGGGCAACAUUCCGAGGGGACCGUCCCCUCGGUAAUGGCGAAUGGGACCCA [C19A C32U],0.0841
4,GGCCGGCAUGGUCCCAGCAUCCUCGCUGGCGCCGGCUGGGCAACAUUCCGGGGGGACCGUCCCCUCGGUAAUGGCGAAUGGGACCCA [C19A A51G],0.0712
5,GGCCGGCAUGGUCCCAGCAUCCUCGCUGGCGCCGGCUGGGCAACAUUCCGUGGGGACCGUCCCCUCGGUAAUGGCGAAUGGGACCCA [C19A A51U],0.175
6,GGCCGGCAUGGUCCCAGCAUCCUCGCUGGCGCCGGCUGGGCAACAUUCCGCGGGGACCGUCCCCUCGGUAAUGGCGAAUGGGACCCA [C19A A51C],0.0733
7,GGCCGGCAUGGUCCCAGCAUCCUCGCUGGCGCCGGCUGGGCAGCAUUCCGAGGGGACCGUCCCCUCGGUAAUGGCGAAUGGGACCCA [C19A A43G],0.0354
8,GGCCGGCAUGGUCCCAGCAUCCUCGCUGGCGCCGGCUGGGCACCAUUCCGAGGGGACCGUCCCCUCGGUAAUGGCGAAUGGGACCCA [C19A A43C],0.0665
9,GGCCGGCAUGGUCCCAGCAUCCUCGCUGGCGCCGGCUGGGCAACAUUCCGAGGGGACCGUCCCCUCGGUUAUGGCGAAUGGGACCCA [C19A A70U],0.277
10,GGCCGGCAUGGUCCCAGCAUCCUCGCUGGCGCCGGCUGGGCAACAUUCCGAGGGGACCGUCCCCUCGGUGAUGGCGAAUGGGACCCA [C19A A70G],0.136
11,GGCCGGCAUGGUCCCAGCAUCCUCGCUGGCGCCGGCUGGGCAACAUUCCGAGGGGACCGUCCCCUCGGUCAUGGCGAAUGGGACCCA [C19A A70C],0.0573
12,GGCCGGCAUGGUCCCAGCAUCCUCGCUGGCGCCGGCUGGGUAACAUUCCGAGGGGACCGUCCCCUCGGUAAUGGCGAAUGGGACCCA [C19A C41U],0.0382
13,GGCCGGCAUGGUCCCAGCAUCCUCGCUGGCGCCGGCUGGGAAACAUUCCGAGGGGACCGUCCCCUCGGUAAUGGCGAAUGGGACCCA [C19A C41A],0.0268
14,GGCCGGCAUGGUCCCAGCAUCCUCGCUGGCGCCGGCUGGGGAACAUUCCGAGGGGACCGUCCCCUCGGUAAUGGCGAAUGGGACCCA [C19A C41G],0
15,GGCCGGCAUGGUCCCAGUCUCCUCGCUGGCGCCGGCUGGGCAACAUUCCGAGGGGACCGUCCCCUCGGUAAUGGCAAAUGGGACCCA [C18U G76A],0.728
16,GGCCGGCAUGGUCCCAGUCUCCUCGCUGGCGCCGGCUGGGCAACAUUCCGAGGGUACCGUCCCCUCGGUAAUGGCGAAUGGGACCCA [C18U G55U],0.595
17,GGCCGGCAUGGUCCCAGUCUCCUCGCUGGCGCCGGCUGGGCAACAUUCCGAGGGAACCGUCCCCUCGGUAAUGGCGAAUGGGACCCA [C18U G55A],0.919
18,GGCCGGCAUGGUCCCAGUCUCCUCGCUGGCGCCGGCUGGGCAACAUUCCGAGGGGACCGCCCCCUCGGUAAUGGCGAAUGGGACCCA [C18U U60C],0.7
19,GGCCGGCAUGGUCCCAGUCUCCUCGCUGGCGCCGGCUGGGCAACAUUCCGAGGGGACCGUCCCCUCGGUAAUAGCGAAUGGGACCCA [C18U G73A],0.161
20,GGCCGGCAUGGUCCCAGCAUCCUCGCUGGCGCCGGCUGGGCAACAUUCCGAGGGGCCCGUCCCCUCGGUAAUGGCGAAUGGGACCCA [C19A A56C],0.173
21,GGCCGGCAUGGUCCCAGCAUCCUCGCUGGCGCCGGCUGGGCAACAUUCCGAGGGGACCGUCCCCUCGGUAAUGGCGAAUGGGACCCA [C19A],0.123
22,GGCCGGCAUGGUCCCAGCAUCCUCGCUGGGGCCGGCUGGGCAACAUUCCGAGGGGACCGUCCCCUCGGUAAUGGCGAAUGGGACCCA [C19A C30G],0.0437

row,Variant,self-cleavage
1,GGCCGGCAUGGUCCCAGCAUCCUCGCUGGUGCCGGCUGGGCAACAUUCCGAGGGGACCGUCCCCUCGGUAAUGGCGAAUGGGACCCA [C19A C30U],0.0623
2,GGCCGGCAUGGUCCCAGUCUCCUCGCUGGCGCCGGCUGGGCAACAUCCCGAGGGGACCGUCCCCUCGGUAAUGGCGAAUGGGACCCA [C18U U47C],0.332
3,GGCCGGCAUGGUCCCAGUCUCCUCGCUGGCGCCGGCUGGGCAACAUACCGAGGGGACCGUCCCCUCGGUAAUGGCGAAUGGGACCCA [C18U U47A],0.293
4,GGCCGGCAUGGUCCCAGCAUCCUCGCUGGCGCCGGCUGGGCAACAUUCCGAGGGGACCGUCCCCUCGGUAAUGGCGUAUGGGACCCA [C19A A77U],0.145
5,GGCCGGCAUGGUCCCAGCAUCCUCGCUGGCGCCGGCUGGGCAACAUUCCGAGGGGACCGUCCCCUCGGUAAUGGCGCAUGGGACCCA [C19A A77C],0.0941
6,GGCCGGCAUGGUCCCAGCAUCCUCGCUGGCGCUGGCUGGGCAACAUUCCGAGGGGACCGUCCCCUCGGUAAUGGCGAAUGGGACCCA [C19A C33U],0
7,GGCCGGCAUGGUCCCAGCAUCCUCGCUGGCGCAGGCUGGGCAACAUUCCGAGGGGACCGUCCCCUCGGUAAUGGCGAAUGGGACCCA [C19A C33A],0.0852
8,GGCCGGCAUGGUCCCAGUCUCCUCGCUGGCGCCGGCUGGGCAACAUUCCGAGGGGACCGUCCCCUCGGUAAUGACGAAUGGGACCCA [C18U G74A],0.0639
9,GGCCGGCAUGGUCCCAGCAUCCUCGCUGGCGCCGGCUGGGCAACCUUCCGAGGGGACCGUCCCCUCGGUAAUGGCGAAUGGGACCCA [C19A A45C],0.0755
10,GGCCGGCAUGGUCCCAGCAUCCUCGCUGGCGCCGGCUGGGCAACUUUCCGAGGGGACCGUCCCCUCGGUAAUGGCGAAUGGGACCCA [C19A A45U],0.199
11,GGCCGGCAUGGUCCCAGCAUCCUCGCUGGCGCCGGCUGGGCAACGUUCCGAGGGGACCGUCCCCUCGGUAAUGGCGAAUGGGACCCA [C19A A45G],0.0369
12,GGCCGGCAUGGUCCCAGCAUCCUCGCUGGCGCCGGCUGGGCAAAAUUCCGAGGGGACCGUCCCCUCGGUAAUGGCGAAUGGGACCCA [C19A C44A],0.149
13,GGCCGGCAUGGUCCCAGCAUCCUCGCUGGCGCCGGCUGGGCAAUAUUCCGAGGGGACCGUCCCCUCGGUAAUGGCGAAUGGGACCCA [C19A C44U],0.0191
14,GGCCGGCAUGGUCCCAGUCUCCUCGCUGGCGCCGGCUGGGCAACAUUCCGAGGAGACCGUCCCCUCGGUAAUGGCGAAUGGGACCCA [C18U G54A],0.295
15,GGCCGGCAUGGUCCCAGCAUACUCGCUGGCGCCGGCUGGGCAACAUUCCGAGGGGACCGUCCCCUCGGUAAUGGCGAAUGGGACCCA [C19A C21A],0.142
16,GGCCGGCAUGGUCCCAGCAUGCUCGCUGGCGCCGGCUGGGCAACAUUCCGAGGGGACCGUCCCCUCGGUAAUGGCGAAUGGGACCCA [C19A C21G],0.166
17,GGCCGGCAUGGUCCCAGUCUCCUCGCUGGCGCCGGCUGGGCAACAUUCCGAGUGGACCGUCCCCUCGGUAAUGGCGAAUGGGACCCA [C18U G53U],0.918
18,GGCCGGCAUGGUCCCAGUCUCCUCGCUGGCGCCGGCCGGGCAACAUUCCGAGGGGACCGUCCCCUCGGUAAUGGCGAAUGGGACCCA [C18U U37C],0.554
19,GGCCGGCAUGGUCCCAGUCUCCUCGCUGGCGCCGGCGGGGCAACAUUCCGAGGGGACCGUCCCCUCGGUAAUGGCGAAUGGGACCCA [C18U U37G],0.128
20,GGCCGGCAUGGUCCCAGUCUCCUCGCUGGCGCCGGCAGGGCAACAUUCCGAGGGGACCGUCCCCUCGGUAAUGGCGAAUGGGACCCA [C18U U37A],0.0773
21,GGCCGGCAUGGUCCCAGCAUCCUCGCUGGCGCCGGCUGGGCAACAUUCCGAGGGGACCGUCCCCUCGGUAGUGGCGAAUGGGACCCA [C19A A71G],0.136
22,GGCCGGCAUGGUCCCAGCAUCCUCGCUGGCGCCGGCUGGGCAACAUUCCGAGGGGACCGUCCCCUCGGUAUUGGCGAAUGGGACCCA [C19A A71U],0.0978

row,Variant,self-cleavage
1,GGCCGGCAUGGUCCCAGCAUCCUCGCUGGCGCCGGCUGGGCAACAUUCCGAGGGGACCGUCCCCUCGGUACUGGCGAAUGGGACCCA [C19A A71C],0.0396
2,GGCCGGCAUGGUCCCAGCAUCCUGGCUGGCGCCGGCUGGGCAACAUUCCGAGGGGACCGUCCCCUCGGUAAUGGCGAAUGGGACCCA [C19A C24G],0.158
3,GGCCGGCAUGGUCCCAGCAUCCUCGCUGGCGCCGGCUGGGCAACAUUCCGAGGGGACUGUCCCCUCGGUAAUGGCGAAUGGGACCCA [C19A C58U],0.168
4,GGCCGGCAUGGUCCCAGCAUCCUCGCUGGCGCCGGCUGGGCAACAUUCCGAGGGGACGGUCCCCUCGGUAAUGGCGAAUGGGACCCA [C19A C58G],0.0519
5,GGCCGGCAUGGUCCCAGUCUCCUCGCUGGCGCCGGCUGGGCAACAUUCCGAGGGGACCGUCCCCUCGGUAAUGGCGAAUGGCACCCA [C18U G82C],0.166
6,GGCCGGCAUGGUCCCAGUCUCCGCGCUGGCGCCGGCUGGGCAACAUUCCGAGGGGACCGUCCCCUCGGUAAUGGCGAAUGGGACCCA [C18U U23G],0.383
7,GGCCGGCAUGGUCCCAGCAUCCUCGCUGGCGCCGGCUGGGCAACAUUCCGAGGGGACCGUACCCUCGGUAAUGGCGAAUGGGACCCA [C19A C61A],0.12
8,GGCCGGCAUGGUCCCAGUCUCCUCGCUGGCGCCGGCUGGGCAACAUUCCGAUGGGACCGUCCCCUCGGUAAUGGCGAAUGGGACCCA [C18U G52U],0.594
9,GGCCGGCAUGGUCCCAGUCUCCUCGCUGGCGCCGGCUGGGCAACAUUCCGACGGGACCGUCCCCUCGGUAAUGGCGAAUGGGACCCA [C18U G52C],0.774
10,GGCCGGCAUGGUCCCAGCAUCCUCGAUGGCGCCGGCUGGGCAACAUUCCGAGGGGACCGUCCCCUCGGUAAUGGCGAAUGGGACCCA [C19A C26A],0.462
11,GGCCGGCAUGGUCCCAGCAUCCUCGUUGGCGCCGGCUGGGCAACAUUCCGAGGGGACCGUCCCCUCGGUAAUGGCGAAUGGGACCCA [C19A C26U],0.929
12,GGCCGGCAUGGUCCCAGCAUCCUCGGUGGCGCCGGCUGGGCAACAUUCCGAGGGGACCGUCCCCUCGGUAAUGGCGAAUGGGACCCA [C19A C26G],0.312
13,GGCCGGCAUGGUCCCAGCAUCCUCGCUGGCGCCGGCUGGGCAACAUUCGGAGGGGACCGUCCCCUCGGUAAUGGCGAAUGGGACCCA [C19A C49G],0.0733
14,GGCCGGCAUGGUCCCAGCAUCCUCGCUGGCGCCGGCUGGGCAACAUUCAGAGGGGACCGUCCCCUCGGUAAUGGCGAAUGGGACCCA [C19A C49A],0.0504
15,GGCCGGCAUGGUCCCAGCAUCCUCGCUGGCGCCGGCUGGGCCACAUUCCGAGGGGACCGUCCCCUCGGUAAUGGCGAAUGGGACCCA [C19A A42C],0.026
16,GGCCGGCAUGGUCCCAGCAUCCUCGCUGGCGCCGGCUGGGCUACAUUCCGAGGGGACCGUCCCCUCGGUAAUGGCGAAUGGGACCCA [C19A A42U],0.0216
17,GGCCGGCAUGGUCCCAGUCUCCUCGCUGGCGCCGGCUGGGCAACAUUCCGAGGGGACCGUCCCCUCGGUAAUGGCGAACGGGACCCA [C18U U79C],0.168
18,GGCCGGCAUGGUCCCAGUCUCCUCGCUGGCGCCGGCUGGGCAACAUUCCGAGGGGACCGUCCCCUCGGUAAUGGCGAAAGGGACCCA [C18U U79A],0.178
19,GGCCGGCAUGGUCCCAGCAUCCUCGCUGGCGCCGGAUGGGCAACAUUCCGAGGGGACCGUCCCCUCGGUAAUGGCGAAUGGGACCCA [C19A C36A],0.119
20,GGCCGGCAUGGUCCCAGCAUCCUCGCUGGCGCCGGCUGGGCAACAUUCCGAGGGGACCGUCCCCUCGGUAAUGGCGAAUGGGGCCCA [C19A A83G],0.122
